Earlier results, collected in patent US20080181869A1, “THERAPEUTICS TO FACILITATE CELL TRANSPLANTATION FOR LIVER DISEASE” (priority 2006, published 2008).

Columns and labels:
lung fibroblasts = settings: in vitro
gene for TGF-β1 = settings: bleomycin-induced model of lung fibrosis, exogenous interferon-γ
[1] = system: hepatic stellate cells (HSCs); settings: rat CCl4 model of liver damage
[2] = system: rat model of hypertension
[3] = in vivo
liver = settings: after hepatic resection
tumor cell = settings: in vitro or in vivo studies

interferon-γ: interferon that inhibits proliferation of lung fibroblasts
proliferation of lung fibroblasts (lung fibroblasts): inhibits the proliferation of lung fibroblasts in a dose-dependent manner
synthesis of protein in fibroblasts (lung fibroblasts): reduces the synthesis of protein in fibroblasts
transcription of the gene for TGF-β1 (gene for TGF-β1): down-regulated

relaxin
collagen deposition by hepatic stellate cells [1]: inhibit collagen deposition
cardiac and renal fibrosis [2]: reversing cardiac and renal fibrosis
adverse events [3]: few adverse events

B1: follistatin: peptide inhibitor of Activin A, a member of the transforming growth factor-beta superfamily (protein, UniProt P19883 30-344, looked up)
Follistatin: GNCWLRQAKNGRCQVLYKTELSKEECCSTGRLSTSWTEEDVNDNTLFKWMIFNGGAPNCIPCKETCENVDCGPGKKCRMNKKNKPRCVCAPDCSNITWKGPVCGLDGKTYRNECALLKARCKEQPELEVQYQGRCKKTCRDVFCPGSSTCVVDQTNNAYCVTCNRICPEPASSEQYLCGNDGVTYSSACHLRKATCLLGRSIGLAYEGKCIKAKSCEDIQCTGGKKCLWDFKVGRGRCSLCDELCPDSKSDEPVCASDNATYASECAMKEAACSSGVLLEVKHSGSCNSISEDTEEEEEDEDQDYSFPISSILEW
reduction in fibrosis (CCl4-exposed rats; CCl4-exposed rats treated with the peptide): 32%
decrease in hepatocyte apoptosis (CCl4-exposed rats; CCl4-exposed rats, during treatment): 87%
time of maximal effect on hepatocyte apoptosis (CCl4-exposed rats; week of follistatin treatment): 4 week
TGF-β-induced secretion of collagen from HSC (HSC): inhibit TGF-β-induced secretion of collagen
liver weight (liver): significantly increases liver weight
tumor cell growth (tumor cell): did not accelerate tumor cell growth
